This passage reports self-cleavage results from the RNAGym collection of RNA variant scans (doi:10.1093/nar/gkz1192).

Sequences and labels used below:
B1: CPEB3 Ribozyme (parent)
chain: UAACAGGGGGCCACAGCAGAAGCGUUCACGUCGCAGCCCCUGUCAGAUUCUGGUGAAUCUGCGAAUUCUGCUGUAUAUCUC

In the data set the parent is B1. The data set can be described thus: self-cleavage, relative activity (ratio to wild type); higher = more cleavage; in vitro, sequencing. The gist of the method:
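CPEB3 self-cleaving ribozyme mutant libraries were made by rounds of error-prone PCR, barcoded, and transcribed in vitro with T7 RNA polymerase for 5 hours at 37°C. Cleavage occurred during transcription and a 15 min DNase I step before EDTA stop. RNAs were reverse transcribed with template switching and Illumina-sequenced, with DNA sequencing mapping barcodes to variants. Relative activity is the variant's cleaved/total read fraction divided by wild type's (minimum 5 reads), averaged across three batches.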
As for UAACAGGGGGCCACAGCAGAAGCGCUCACGUCGCAGCCCCUGUCAGAUUCGGGUGAAUCUGCGAAUUCUGCUGUAUAUCUC, the self-cleavage came to 0.12. For UAACAGGGGGCCACAGCAGAAGCGUUCACGUCGCAGCCCCUCUCAGAUUCUGGUGAAUCUGCGAAUUCUGCUGUAUAUCUC the value was 0.51; for UAACAGGGGGCCACAGCAGAAGCGUACACGUCGCAGCCCCUGUCAGAUUCUGGUGAAUCUGCGAAUUUUGCUGUAUAUCUC, 0.79; for UAACAGGGGGCCACAGCAGAAGCGUUCACGUCGCAGCCCCUGUCAGAUUCUGGUGAAUCUGCGAAUUCCGCUGAAUAUCUC, 0.55. As to UAACAGGGGGCCAUAGCAGAAGCGUUCGCGUCGCAGCCCCUGUCAGAUUCUGGUGAAUCUGCGAAUUCUGCUGUAUAUCUC, the self-cleavage is 0.76. The figure for AAACAGGGGGCCACAGCAGAAGCGUCCACGUCGCAGCCCCUGUCAGAUUCUGGUGAAUCUGCGAAUUCUGCUGUAUAUCUC is 0.47; for UAACAGGGGGCCACAGCAGAAGCGUGCACGUCGCAGCCCCUGUCGGAUUCUGGUGAAUCUGCGAAUUCUGCUGUAUAUCUC it is 0.17; for UAACAGGGCGCCACAGCAGAAGCGUUCACGUCGCAGCCCCUGUCAGGUUCUGGUGAAUCUGCGAAUUCUGCUGUAUAUCUC it is 0.21. For UAACAGGAGGCCACAGCAGAAGCGUUCACGUCGCAGCCCCUGUCAGAUCCUGGUGAAUCUGCGAAUUCUGCUGUAUAUCUC the value was 0.2; for UAACAGGGGGCCACAGCAGAAGCGUUCACGUCGCUGCCCCUGUCAGAUUCUGGUGACUCUGCGAAUUCUGCUGUAUAUCUC, 0.31.

With UAACAGGGGGCCACAGUAGAAGCGUUCACGUCGCAGCCCCAGUCAGAUUCUGGUGAAUCUGCGAAUUCUGCUGUAUAUCUC, the self-cleavage was 0.24. Consider UAACAGGAGGCCACUGCAGAAGCGUUCACGUCGCAGCCCCUGUCAGAUUCUGGUGAAUCUGCGAAUUCUGCUGUAUAUCUC, for which the self-cleavage turned out to be 0.16. For UAACAGGGGGCCACAGCAGAAGCGUUCACAUCGCAGCCCCUGACAGAUUCUGGUGAAUCUGCGAAUUCUGCUGUAUAUCUC the value was 0.24; for UAACAGGGGGCCACAGCAGAAGCGUUCACGUUGCAGCCCCUGUCAGAUUCUGGUGAACCUGCGAAUUCUGCUGUAUAUCUC, 0.35; for UAACAGGGGGCCACAGCAGAAGCGUUCACGUCGCAGCCCCUGUCAGCUUCUGGUGAAUCUGCGAAUUCUGCUGUAUACCUC, 0.54. For UAACAGGGGGCCACAGCAGAAGCGUUCACGUCGCAGCCCCUGUCAGAUUCUGGUGAGUCUGCGAAUUCUGCUGUAAAUCUC the value was 1.01; for UAACAGGGGGCCACGGCAGAAGAGUUCACGUCGCAGCCCCUGUCAGAUUCUGGUGAAUCUGCGAAUUCUGCUGUAUAUCUC, 0.19; for UAACAGGGGGCCACAGCAGAUGCGUUCACGUCGCAGCCCCUGUCAGAUUCUGGUGAAUCUGCUAAUUCUGCUGUAUAUCUC, 0.28. The figure for UAACAGGGGGCCACAGCAGAAGCGUUCACGUCGCAGCCCCUGUCAGAUUCUGGUGAAUCAGCGAAUUCUGCUGUAUAUCUU is 0.76; for UAACAGGGGGCCACAGCAGAAGCGUUCACGUCGCAGCCCCUGUCAGAUUAUGGUGAAUCUGCGAAUUCUGCUGUACAUCUC it is 1.02. In the case of UAACAGGGGGCCACAGCAGGAGCUUUCACGUCGCAGCCCCUGUCAGAUUCUGGUGAAUCUGCGAAUUCUGCUGUAUAUCUC, the self-cleavage is 0.14. For UAACAGGGGGCCACAGCAGUAGCGUUCACGUCGCAGCCCCUGUCAGAUUAUGGUGAAUCUGCGAAUUCUGCUGUAUAUCUC the value was 0.21. The figure for UAACAGGGGGCCACAGCAGAAGCGUGCACGUCGCAGCCCCUGUCAGAUUCUGGUGAAUCUGCGAAUUCUGCUGUAUGUCUC is 0.34; for UAACAGGGGGCCAUAGCAGAAGCGUUCACGACGCAGCCCCUGUCAGAUUCUGGUGAAUCUGCGAAUUCUGCUGUAUAUCUC it is 0.74.

For the variant UAACAGGGGGCCACAGCAGAAGCGUUCACGUCGCAGCCCCUGUCAGAUUCUGGUGAAUCUGCGGAUUCUUCUGUAUAUCUC, the self-cleavage came out at 0.29. For UAACGGGGGGCCACAGCAGAAGCGUUCACGUCGCAGCCCCUGCCAGAUUCUGGUGAAUCUGCGAAUUCUGCUGUAUAUCUC the value was 0.43. For UAACAGGGGGCCACAGCAGAAGCGUUCACGUCGCAGCCCCUGUCAGAUUCUGGUGAAUCUGCGAAUUCUGCUGUAUAUCGU the value was 1.39; for UAACAGGGGGCCACAGCAGAAGCGUUCACGUCGCAGCCCCCGUCAGAUUCUGGUGAAUCUGCGAAUUCUGCAGUAUAUCUC, 0.79; for UAACAGGGGGCCACAGCAGAAGCGUUCACGUCGCAGCCCCUGUCAGAUUCUGGUGAAUCUGCAAGUUCUGCUGUAUAUCUC, 0.38. The figure for UAACAAGGGGCCACAGCAGAAGCGUUCACGUCGCAGCCCCUGCCAGAUUCUGGUGAAUCUGCGAAUUCUGCUGUAUAUCUC is 0.19; for UACCAGGGGGCCACAGCAGAAGCGUUCACGUCGCAGCCCCCGUCAGAUUCUGGUGAAUCUGCGAAUUCUGCUGUAUAUCUC it is 1.02. UAACAGGGGGCCACGGCAGAAGCGUUCACGUCGCAGCCCCUGUCAGAUUCUGGUUAAUCUGCGAAUUCUGCUGUAUAUCUC: the self-cleavage amounted to 0.65. The figure for UAACAGGGGGCCACAGCAGAAGCGUUCACAUCGCAGCCCCUGUCAGAUUCUGGUGAAUCUGCGUAUUCUGCUGUAUAUCUC is 0.34; for UAACAGGGGGCCACAGCAGAAGCGUUCACGUUGCAGCCCCUAUCAGAUUCUGGUGAAUCUGCGAAUUCUGCUGUAUAUCUC it is 0.19.
